The values below come from a protein production outcome set (Wang et al. 2014).

This data set is described as follows: label from the status in PepcDB records.
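Note: failed if final PepcDB status was selected cloned or expressed and not failed if soluble or beyond.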

“MSHVSYAEPPAQGWDIHCHTVFSDGTETPRTLVEQARKLGLHGVAIADHDTTAGWDEATEASEEIGLPLLLGTEITAVDEDVSVHMLAFQYDPSNEHISSMFANTRAARLRRTKRMVERLSQDFPITWDDVLAQVKEGERTTIGRPHIADALVAAGVYETRSDAFADAVSAKSKYYIPTPSPSTHEVIAAVKGAGGVVVAAHAGDPQRNRRLLSDEQLDAMIADGLDGLEVWHRGNPPEQRERLLTIAARHDLLVTGGSDWHGKGKPNGLGENLTDDDTVREILCRGVDLIGRVGSSHAA”: the protein production result is recorded as “not failed”.

“MSIAIRIATIGALCAASAALSGCGSVGAASGALAGAATGLVTANPAVGVGVGIAVQAATDEAVNRTMKQLHQNQQDAIAKAAGSLAVGEVKPWKVKNTLPLENGEGEVRVTRAYSTALALCKEFAFSVKDGDKADWYFANACQQGTHWKWASAEPAVDRWGNLQ”: the protein production result is “failed”.

For the sequence “MSIDFYNQNASSFYASTVEVDSSSLLEQFTPYLPKGGSVLDAGCGSGRDSKRLIELGFHVDAFDASAALATLAQQLLGKPVRVATFMQFTSTLQYDGIWACASLLHVSKASLPDAFAHLASMLKSGGAFYCSFKYGQGEVERDGRSFTHCDEALLAELLTGSPLVIDKVWLTLEHHHHHH”, the protein production entry is reported as “failed”. The result for “MSIEPVFILVRPQMGENIGAAARAMLNFGLGRLRIVDPRDGWPNPKAVAMASGAGRLLDHAGLFPTVAEAIRDCDYVFATTARGRELTKPVMTPERAMAHGRALTGEGRRVGILFGPERTGLENEDVALANAIVTVPVNPEFFSLNLAQCVLLLAYEWRRQHDETPPEVIDMARVDFASGLEVEKLGD” reads “failed”; that for “MSIEVPISIPKTLIIIPAYNEEEAIADTLTRLLELKQHFTALSICVINDGSQDKTAQIVKNFPVHLINLPYNLGIGSAVQTGYKYAYENGYDIAIQFDADGQHNPDDLYKIIQPIAEGQCDMVLGSRFTEKTAYKGSISRRIGIFYFTALLKVLTKQTFMDPTSGYRAINREVITIFAHNYPKDYPEPEVLIHLKKKKLRINEISVNMQERQGGQSSITPLKSAYYMIKVSLAILMQKIVKGLEHHHHHH”, “failed”. As for “MSIGFYANDNFMGKSHIMDKSGKPHIGISKYPVIITQAKQQKLRKAINEARESNDILMVDFPRQMLITEHDDELVKSLGESLEEDLEYLGAIFYGKSKYVDSITGKFSLWRSNNVKVNLEHHHHHH”, the protein production result is on record as “failed”.

In the case of “MSIIEDNKISFVIPTINEEKTIGSVIDGIHENFPNAEIILVDTNSTDKTKEIAKSKGATVIEEPRKGYGRAYQTGIPAAKGDIIVCMDGDGTYPTDIVKPLIEILILDKVDFISCDRITFRTSTNYTTLHYVGNMVLNLTIRILFKVRMVDSQSGMWIFRSELYKKMKNLGYGMSFSQNIKIEAVRHGVFIEIPIRYGVRITKPKLKTWHDGFHNLFALFIKRVSELEHHHHHH”, the protein production entry is “not failed”. As for “MSIQMATSNDLEWINNQYDSIGFVRSDLKRDKVAIITYNNEYAGIGRLVQIDEDTLEMGGILILPKFRGLQLAGELVSFLVETAKKLQVQHVYCLPFEELENFYKKYGYTEVDTTKEFVHPIILEKYNWCLDHYEKHVLLFKL”, the protein production entry was “failed”. The result for “MSIRIDRQRCIGCGKCAEICPGNLIVIDEDKKAFVRDPRDCWGCAACVKECKFSAIRYFLGAEIGGNGTTMYVEKENDEIMYWYFEKPSGEKEMIVQNLKDNTTYLEHHHHHH” reads “failed”; that for “MSIRIKLFLAFLLTTFVVVMGMHFFTRWSLEKGFTEFIEKRQQERLDKIIDVLEEHYAEHRGWGELAGNKQHWISLLWHAGPHRHRPPKWIIEQAQHEPDRQWPPAVTPGTAERKWSPFELRVILLDADRSILFGRKELISQLSLHPVQYEHRTVGFLGLLPGNPVSQASDIYFMEQQADFFFWIALTMVVLSALIAWLMAYHLGRPLKQIAAVVQRLATGDYKARLPVISKDEMGQLALNFNDTAAALEQAEQSRRRWVADISHELRTPLAVLRGELEAILDGVHPLTPAAIESLSGDVLRLNRLTEDLYQLALSDQGALSYRKVLLDPVPLLREDLATFTTDFNHKQISVRWINRLFKPVLVNADPDRLSQLFRNLLTNSLNHTDARGQLEITVQRLADKLVIELADSSPGVSDQDIAHLFDRFYRVDHSRNRHLGGAGLGLAICSNIVRAHEGTLMASHSALGGLAIHIELPITP”, “failed”; that for “MSIRLAQVTDIPVLKELLNQIFQVHQTVRPDLFKNTDKGSKYSETELKELLQDESKPIFVYTDGKNRVLGHLFLVIKETKGSSVSKPLKTLFIDDLCVSKEARGQKIGQELFEFALKYAKKLGCYDLTLNVWNDNKGALAFYERQGLKARETKMEKILLEHHHHHH”, “not failed”. The result for “MSIRLTNISKKFGQFQALSPLNLDIQEGEMIGLLGPSGSGKTTLLRIIAGLEGADSGHIHFGNRDVTQVHVRDRRVGFVFQNYALFRHMTVADNVAFGLEVIPKKQRPSAAEIQKRVSHLLEMVQLGHLAQRYPEQLSGGQKQRIALARALATQPEVLLLDEPFGALDAKVRKELRRWLRSLHDELKFTSVFVTHDQDEALELSDRVVVMSNGNIEQVNTPIELYAQPNSRFVFDFLGNVNRFEANWQQNRWTNGDAFIVPPEQTPLQQNGALYVRSHELALADKPNSQAHIPFTIVAITPIGAEVRVELAPIGWQSEELWEAKFTHHHLQELGLQKGSVVYATPRTGYFFGKQGDGSPIRQSWPFLPPGSLAFDI” reads “failed”; that for “MSISRRDFNKLLLAGAAGSAFGLFGSGNTAFAARKRVVVIGGGFGGAATAKYLKKLDPTLAVTLIEPKPAFVTCPFSNWVLGGLRTMKDITHTYTALRTRHGVNVIADRVVSVDAAKGTLRLAGGRVIGYDRLVVSPGIDFKYDTIPGYSQKIAKSKMPHAWQAGPQTILLHRQLQAMKNGGTVVICPPDNPFRCPPGPYERASLIAYYLKQHKPKSKIVILDAKEKFSKQGLFTKGWESRYPGMIELRGSTGGGKVLGVDAKAMTVETDLGAVKGDVINVIPAQKAGKIAFEAGLTNEKGWCPVNPSSFESTIHQGIHVIGDACIAGAMPKSGFAASSQGKVAAVAIINLLRGQEPAPPSLVNTCYSLIGPKYGVSVAGVYQLSPTGIVEIPGSGGRLRPMPATNSWNRRRFSPKAGTPISARISGDKPLDSCGVPAVNHQAPLPLTHKATPDCRKR”, “failed”. The result for “MSITLLTGIGEIFLGILLNVFIGKIVKIVFKKDGTLPRVPVRFIGITLILNGVGNMVHL” reads “failed”; that for “MSKDLLFWLTILLVLISGYLSYRKKRIESLTTAGLAGGFALSFMLYEKFPVLFSFLLGFIATFAFEWTRKR”, “failed”; that for “MSKFKSHNSNNTKQTINKHALIFGLISVFLSGIGFTIISPVIPFLVQPYINNPGNQAIIVTLLTSVYAICMFFSAPGLGALSDKYGRRPVLLVCLLGSSIGYLIFGIGGALWVLFAGRIIDGITGGTISTIFAYFADIIPENERTKYFGWVSAVVGVGTIIGPTLGGLLAKFGYSVPLYFGAIITLLNVVYGFFFMPESLDKNIRLKEITFVRLNPFTQLANLLSIKSLKRLLISAFLLWIPNGSLQAVFSQFTIDTFSWKPAIIGLMFSIMGFQDIISQSLIMPKLLVKLSDKYIAILGMISEVIGYSLIAASALFYFYPLFIAGMFIFGFGDSIFGPSFNGMLSKSVDSSEQGRIQGGSQSIQALARMIGPIIGGQIYVSLGHATPAFMGIVLITVAIPVLYKNIHINI”, “failed”. Consider “MSKGYGVFGHVPDNADDDDLLPYEDDDSGVSWGHALRRRNPWKRGGDEGADYDDDRYGADDTDDTDDTNEDRSLFAGKSSGIGGISGEADGMLGGAGAAGSRAVTFGGTDSLSAADAVMPYRFRQGRSVWFEDEDEGHFAGAAKRAEAHAVPILALRNDVESSSSNAVLARARSIARKAATMVINPVYSENHRTGYAELDGILRGTTSPSSKYRTSVQFDLDTGEAVGGKCSCPAYGRGYGMCKHMIALAFIFCDDPQRFEGYRAGAVRPSRTLIDYMEHVDRQDAQAKARRRNALMRRFDTAKGRNGAGGRHTNSGYGSRAGTRGGGYQGDSETVGLGQVQLVPILSFIDGVWSVEFKIGSTSNGSSYVLKSIPQFVLTMANGDYTDYGQKLAFTHTPDMFDDDSRPLLGFLDDAMAVRRAAEQQDRYYGHIAIDRHLTLSAPEVARLLSVREGRGVQLVLNTWFSGQPASVPVDGGEPDFLMRIARRDFNTYGPDAGYLLTGVPAVETVIDGGKNVWLLLASANPAGVVSAMMAGSQRKSAAGCRFVRCPKRLIPLRGLLGDMFEPDGEGQVIAGDDIALFARTLLPQLVGAGLLEASEIPRELAELSPTECSLQFYLDRDEHGVQCEVKARYGDAIVPLLPDGPTVHARDERSIPLSRGVIGRDFDAEHLAIDVVREFFTMPDQRKRVAAATHQTVNGFRTPAARKTAKQFVPDAATIDRDDTTQIVRLFDEGLPALKEVGEVFTTPAFDRLIAPKPPSVKVGLSIKGNLVEISPLADEVPPDEVGALLSSYRRRQRFHQLKDGTLVKLSGANLSTLDRLASDLDLSEQQLNSGLIELPGGRAFLLDGELPDDGSDVVKDASFTEYIDDLKIIDPKSYEVPDSLKHILRPYQVEGFQWLNTLCDKGFGGILADEMGLGKSVQLIALLLSRYHNESSGMPTAQGMDAGNAGNSESAVTGHITFDSEDGGSHPSLIVCPASLVYNWGAEFAKFAPSFNAVVVAGTKAERRTAIGRAFRADEPTVLITSYDLLRRDVDDYTANEQRFNVMALDEAQYIKNHTTKIAKAVKAVAADHRFALTGTPIENRLSELWSIFDFLMPGLLGSYKRFHERYELPISNARAADGSTAEGRAAAQVNPEAARVSRQLQSLVGVFIKRRLKSQVLTDLPDKLETTLTVQLAGEQRKLYAAHEQRLRMQLEHSEEADFNTSKIRILAELTKLRQICCDPRLLYADAKDQSAKLAAITELVETCVNEGKKALIFSQFTSFLDLIAERFDAQGLRYYTITGSTPKKKRLELVDQFNADDTPAFLISLKAGNTGLNLTGASVVIHADPWWNAAAQDQATDRAHRIGQTEDVNVYQVVAKDTIEERILELQHTKSELARQFTDASLLADEAGTGASALTEAPASIATLTKDDLLNLLG”, for which the protein production result was “failed”. The result for “MSKHTKFSPEVRDRAIRMVYEVRESRTSQWAAIEAVASKIGCTAQTLSSWIRKAAAPAAPSASGTDARVKELEREVRELKRANEILKVASAFSAQAELDRRLK” reads “failed”. Take “MSKIAIIVDSSSYIPKDQLKKHHIYVIDNPIIFGETIYHEFNWPVNADFYQQMATTPIQPTTSQPAPGDFEAAFQAAKDDGYKQALVITLSSGFSGTFLNTSAIASSHSDIDIHVWDSRIACLGAGNQALLAAYLAEKGIGIDEILSKLQILRSRTGVFFVVDSISHLQRTGRLSGGQALVAGLLNIKPILNINTNKQGKIDAVAKTRKMSGAWRYIEKHFAKIADNYQRAGWPMRVSILDADNPELADAWLKRAEKRWPEIIFERGIIGPLVGVHIGGKAVGLIWAEDYKRLED”: the protein production result is reported as “failed”.

In the case of “MSKIASEVVATTLNDWYIAIKKQKVDESIKYYSEIKKLFDEMEEDQEVLAYYSLLEERHKMLLHSSRGEPLQKHTYFTEDNQNFITKTNDKLEYNFYLFEAMYEAYNKNYDRAINLYGLAEKKLAEIPDEIEAAEFYSKVSYLYTLVKQSIVAQHYIKNAISIYKRHPDYKCKLATSTMIAAANYADMKRFEEAEQYYLEAIDIAKETKDEFLKAQLFHNLSIVYSDWNKPDKCIESLEKAIGNESWLHSIYYINSLFMMIKELFKIDEKMKAINFYNKAQERLILMENKVYEAKISILYNLYCGELKNNFNNCISNIEFLKQQNELESVDELSYIAAKRFESIGAFEEATSFFNAKIWAEQKMNQVEGIL”, the protein production entry was “failed”. In the case of “MSKIEIFEAAGCCATSSVVVSDEAVKWNASAEWAKKHGVNIQRYSLAKNPQQFLNTPVIRAFLNTSGMESLPATLLDGQLVMAGKLPSREDIARWAGISLTQDWNEDSTQPRCCSIPRMP”, the protein production result is “failed”.
